B1: mAb 30H3D2 (antibody, IgG1, V domains shown)
VH: EVQLVESGGDLVKPGGSLKLSCAASGFTFSSYGMSWVRLTPDKRLEWVATISSGGSHTYYPDSVRGRFTISRDNAKNTLYLQMSSLKSEDTAMYYCARHPIYYYISSYAMDYWGQGTSVTVSS
VL: DVVMTQTPLSLPVSLGDQASISCRSSQSLVHSTGNTYLHWYLQKPGQSPKLLIYKVSNRFSGVPDRFGGSGSGTDFTLKISRVEAEDLGVYFCSQSTHVPPTFGGGTKLEIK
B2: mAb 2C2E7 (antibody, IgG2b, V domains shown)
VH: QIQLVQSGPELKKPGETVKISCKASGYTFTTYGMSWVKQAPGRGLKWMGWINPYSGVPTYAVDFKGRFAFSLETSASTAYLQINNLKNEDTATYFCARGGRRGDFGYWGQGTTLTVSS
VL: QIGLTQSPAIMSASPGEKVTMTCSASSSISYMHWYQQKPGTSPKTWIYDTSKLASGVPARFSGSGSGTSYSLTISSMEAEDAATYYCHQRSSHHTFGGGTKLEIK

Target: survivin peptide coating antigen, not stated which (SEQ ID NO:4 or SEQ ID NO:27)
Assay: indirect ELISA; coating peptide not stated

Row | Binder | titer (highest dilution with signal to blank ratio >2:1) (dilution (1:x))
1 | B1 | 512000
2 | B2 | 512000
